Reference: US20140248273A1 (published 2014)

Biological target: His-tagged SSL3 (S. aureus strain NCTC 8325), with the pRSETB N-terminal tag carrying the Xpress epitope (Staphylococcus aureus strain NCTC 8325, UniProt Q2G0X7 31-356)
Test: ELISA, coated extracellular domain of mouse TLR2 (FIG. 5A)

B1: recombinant extracellular domain of mouse TLR2 (receptor)
chain: QESLSCDASGVCDGRSRSFTSIPSGLTAAMKSLDLSFNKITYIGHGDLRACANLQVLILKSSRINTIEGDAFYSLGSLEHLDLSDNHLSSLSSSWFGPLSSLKYLNLMGNPYQTLGVTSLFPNLTNLQTLRIGNVETFSEIRRIDFAGLTSLNELEIKALSLRNYQSQSLKSIRDIHHLTLHLSESAFLLEIFADILSSVRYLELRDTNLARFQFSPLPVDEVSSPMKKLAFRGSVLTDESFNELLKLLRYILELSEVEFDDCTLNGLGDFNPSESDVVSELGKVETVTIRRLHIPQFYLFYDLSTVYSLLEKVKRITVENSKVFLVPCSFSQHLKSLEFLDLSENLMVEEYLKNSACKGAWPSLQTLVLSQNHLRSMQKTGEILLTLKNLTSLDISRNTFHPMPDSCQWPEKMRFLNLSSTGIRVVKTCIPQTLEVLDVSNNNLDSFSLFLPRLQELYISRNKLKTLPDASLFPVLLVMKIRENAVSTFSKDQLGSFPKLETLEAGDNHFVCSCELLSFTMETPALAQILVDWPDSYLCDSPPRLHGHRLQDARPSVLECHQ
notes: extracellular domain; also called mTLR2
B1: binds.
